Values quoted from earlier work, collected in article PMC6668730.
Read-outs that look alike come from different tables or passages of the source. Values belong to the substance of their own block, whether it stands above or below them.

What was measured:
[1] = biological target: Histone H3 (Homo sapiens) (UniProt P68431)
[2] = biological target: Histone H3 (Homo sapiens) (UniProt P68431); remark: listed apart in the source
[3] = biological target: Histone H3 (Drosophila melanogaster) (UniProt P02299)
[4] = biological target: Histone H3 (Homo sapiens) (UniProt P68431); remark: listed apart in the source
[5] = biological target: Histone H3 (Drosophila melanogaster) (UniProt P02299); remark: listed apart in the source

GLP1 ankyrin repeats, sequence (Q9H9B1 737-1004): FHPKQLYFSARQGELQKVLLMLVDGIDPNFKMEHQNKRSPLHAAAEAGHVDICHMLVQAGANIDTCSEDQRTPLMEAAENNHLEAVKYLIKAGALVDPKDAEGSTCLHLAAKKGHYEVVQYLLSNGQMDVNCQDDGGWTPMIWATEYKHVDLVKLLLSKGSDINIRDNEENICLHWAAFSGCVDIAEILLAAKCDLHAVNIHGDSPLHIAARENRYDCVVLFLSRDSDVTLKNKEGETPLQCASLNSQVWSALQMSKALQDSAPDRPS
G9a ankyrin repeats, sequence (Q96KQ7 649-879): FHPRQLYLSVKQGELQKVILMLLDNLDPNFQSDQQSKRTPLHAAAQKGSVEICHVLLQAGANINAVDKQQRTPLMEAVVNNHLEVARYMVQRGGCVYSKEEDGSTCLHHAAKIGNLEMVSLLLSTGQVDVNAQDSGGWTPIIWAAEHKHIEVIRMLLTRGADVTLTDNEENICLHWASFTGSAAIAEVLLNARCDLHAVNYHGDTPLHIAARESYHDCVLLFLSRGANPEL

Kd [1]: 5 µM
Kd [2]: 2.7 µM
Substance: BPTF PHD finger (from UniProt Q12830)

Kd [3]: 6 µM
Substance: G9a ankyrin repeats (from UniProt Q96KQ7)

Kd [4]: 5 µM
Kd [5]: 7 µM
Substance: GLP1 ankyrin repeats (from UniProt Q9H9B1)
